What was measured:
[1] = target: human LAG-3 protein (Lymphocyte activation gene-3) on the cell surface (human) (UniProt P18627); assay: flow cytometry on LAG-3-transfected CHO cells; antibody 10000 ng/ml
[2] = target: IMP321 (recombinant soluble human LAG-3Ig fusion protein) (human) (UniProt P18627); assay: FACS, LAG-3Ig-Alexa 488 (1 µg/ml) pre-incubated with antibody 3300 ng/ml, then bound to Raji (MHC class II+) cells
[3] = target: human LAG-3 protein (Lymphocyte activation gene-3) on the cell surface (human) (UniProt P18627); assay: flow cytometry on CD4+ cells of SEB-stimulated PBMCs (Donor 1); antibody 10000 ng/ml
[4] = target: human LAG-3 protein (Lymphocyte activation gene-3) on the cell surface (human) (UniProt P18627); assay: flow cytometry on CD4+ cells of SEB-stimulated PBMCs (Donor 1); antibody 7 ng/ml
[5] = target: human LAG-3 protein (Lymphocyte activation gene-3) on the cell surface (human) (UniProt P18627); assay: flow cytometry on CD8+ cells of SEB-stimulated PBMCs (Donor 1); antibody 0 ng/ml (no-antibody background)
[6] = target: human LAG-3 protein (Lymphocyte activation gene-3) on the cell surface (human) (UniProt P18627); assay: flow cytometry on LAG-3-transfected CHO cells; antibody 0 ng/ml (no-antibody background)
[7] = target: human LAG-3 protein (Lymphocyte activation gene-3) on the cell surface (human) (UniProt P18627); assay: flow cytometry on CD8+ cells of SEB-stimulated PBMCs (Donor 1); antibody 541 ng/ml
[8] = target: IMP321 (recombinant soluble human LAG-3Ig fusion protein) (human) (UniProt P18627); assay: FACS, LAG-3Ig-Alexa 488 (1 µg/ml) with antibody 0 ng/ml (no-antibody value), bound to Raji (MHC class II+) cells
[9] = target: human LAG-3 protein (Lymphocyte activation gene-3) on the cell surface (human) (UniProt P18627); assay: flow cytometry on CD8+ cells of SEB-stimulated PBMCs (Donor 1); antibody 1.6 ng/ml
[10] = target: IMP321 (recombinant soluble human LAG-3Ig fusion protein) (human) (UniProt P18627); assay: FACS, LAG-3Ig-Alexa 488 (1 µg/ml) pre-incubated with antibody 297 ng/ml, then bound to Raji (MHC class II+) cells
[11] = target: human LAG-3 protein (Lymphocyte activation gene-3) on the cell surface (human) (UniProt P18627); assay: flow cytometry on LAG-3-transfected CHO cells; antibody 500 ng/ml
[12] = target: human LAG-3 protein (Lymphocyte activation gene-3) on the cell surface (human) (UniProt P18627); assay: flow cytometry on CD8+ cells of SEB-stimulated PBMCs (Donor 1); antibody 7 ng/ml
[13] = target: IMP321 (recombinant soluble human LAG-3Ig fusion protein) (human) (UniProt P18627); assay: FACS, LAG-3Ig-Alexa 488 (1 µg/ml) pre-incubated with antibody 89 ng/ml, then bound to Raji (MHC class II+) cells
[14] = target: human LAG-3 protein (Lymphocyte activation gene-3) on the cell surface (human) (UniProt P18627); assay: flow cytometry on CD8+ cells of SEB-stimulated PBMCs (Donor 1); antibody 0.4 ng/ml
[15] = target: human LAG-3 protein (Lymphocyte activation gene-3) on the cell surface (human) (UniProt P18627); assay: flow cytometry on CD8+ cells of SEB-stimulated PBMCs (Donor 1); antibody 29 ng/ml
[16] = target: human LAG-3 protein (Lymphocyte activation gene-3) on the cell surface (human) (UniProt P18627); assay: flow cytometry on CD4+ cells of SEB-stimulated PBMCs (Donor 1); antibody 0.4 ng/ml
[17] = target: human LAG-3 protein (Lymphocyte activation gene-3) on the cell surface (human) (UniProt P18627); assay: flow cytometry on CD4+ cells of SEB-stimulated PBMCs (Donor 1); antibody 1.6 ng/ml
[18] = target: human LAG-3 protein (Lymphocyte activation gene-3) on the cell surface (human) (UniProt P18627); assay: flow cytometry on CD4+ cells of SEB-stimulated PBMCs (Donor 1); antibody 2326 ng/ml
[19] = target: human LAG-3 protein (Lymphocyte activation gene-3) on the cell surface (human) (UniProt P18627); assay: flow cytometry on CD8+ cells of SEB-stimulated PBMCs (Donor 1); antibody 2326 ng/ml
[20] = target: human LAG-3 protein (Lymphocyte activation gene-3) on the cell surface (human) (UniProt P18627); assay: flow cytometry on CD8+ cells of SEB-stimulated PBMCs (Donor 1); antibody 126 ng/ml
[21] = target: IMP321 (recombinant soluble human LAG-3Ig fusion protein) (human) (UniProt P18627); assay: FACS, LAG-3Ig-Alexa 488 (1 µg/ml) pre-incubated with antibody 27 ng/ml, then bound to Raji (MHC class II+) cells
[22] = target: human LAG-3 protein (Lymphocyte activation gene-3) on the cell surface (human) (UniProt P18627); assay: flow cytometry on CD8+ cells of SEB-stimulated PBMCs (Donor 1); antibody 10000 ng/ml
[23] = target: IMP321 (recombinant soluble human LAG-3Ig fusion protein) (human) (UniProt P18627); assay: FACS, LAG-3Ig-Alexa 488 (1 µg/ml) pre-incubated with antibody 990 ng/ml, then bound to Raji (MHC class II+) cells
[24] = target: human LAG-3 protein (Lymphocyte activation gene-3) on the cell surface (human) (UniProt P18627); assay: flow cytometry on CD4+ cells of SEB-stimulated PBMCs (Donor 1); antibody 0 ng/ml (no-antibody background)
[25] = target: human LAG-3 protein (Lymphocyte activation gene-3) on the cell surface (human) (UniProt P18627); assay: flow cytometry on CD4+ cells of SEB-stimulated PBMCs (Donor 1); antibody 126 ng/ml
[26] = target: human LAG-3 protein (Lymphocyte activation gene-3) on the cell surface (human) (UniProt P18627); assay: flow cytometry on CD4+ cells of SEB-stimulated PBMCs (Donor 1); antibody 29 ng/ml
[27] = target: IMP321 (recombinant soluble human LAG-3Ig fusion protein) (human) (UniProt P18627); assay: cell-based or functional assay
[28] = target: human LAG-3 protein (Lymphocyte activation gene-3) on the cell surface (human) (UniProt P18627); assay: flow cytometry on LAG-3-transfected CHO cells; antibody 2000 ng/ml
[29] = target: IMP321 (recombinant soluble human LAG-3Ig fusion protein) (human) (UniProt P18627); assay: FACS, LAG-3Ig-Alexa 488 (1 µg/ml) pre-incubated with antibody 11000 ng/ml, then bound to Raji (MHC class II+) cells
[30] = target: human LAG-3 protein (Lymphocyte activation gene-3) on the cell surface (human) (UniProt P18627); assay: flow cytometry on CD4+ cells of SEB-stimulated PBMCs (Donor 1); antibody 541 ng/ml
[31] = target: T1, human LAG-3 protein (Lymphocyte activation gene-3) on the cell surface (human, UniProt P18627 23-525); assay: flow cytometry on CD4+ cells of SEB-stimulated PBMCs (Donor 1), from Table 13
T1 construct: also called CD223; CHO LAG-3+
T1 sequence: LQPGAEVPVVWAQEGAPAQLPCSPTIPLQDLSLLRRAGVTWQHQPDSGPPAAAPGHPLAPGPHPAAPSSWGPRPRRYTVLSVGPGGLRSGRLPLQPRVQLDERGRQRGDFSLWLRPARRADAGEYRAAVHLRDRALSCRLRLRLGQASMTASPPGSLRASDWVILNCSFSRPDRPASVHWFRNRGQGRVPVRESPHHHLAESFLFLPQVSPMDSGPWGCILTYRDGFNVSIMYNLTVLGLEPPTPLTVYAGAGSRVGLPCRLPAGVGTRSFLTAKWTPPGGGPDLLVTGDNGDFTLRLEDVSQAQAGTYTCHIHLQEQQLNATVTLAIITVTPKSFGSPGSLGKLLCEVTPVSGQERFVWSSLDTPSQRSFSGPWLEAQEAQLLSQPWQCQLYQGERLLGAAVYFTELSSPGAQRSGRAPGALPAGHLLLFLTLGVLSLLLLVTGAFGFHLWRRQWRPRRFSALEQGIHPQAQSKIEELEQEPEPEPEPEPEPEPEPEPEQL
Protocol: (§1) LAG-3⁺-transfected CHO cells, or SEB-stimulated PBMCs from a healthy donor were incubated with anti-LAG-3 monoclonal antibody, or an isotype control (mIgG1) for 30 minutes in PBS, BSA 0.5%, Azide 0.1% at 4° C. […] The secondary antibody was washed away, and the CHO cells were directly analyzed by flow cytometry. The PBMCs were phenotyped using CD4-PE-Cy7 and CD8-APC-Cy7.

[32] = target: T1, human LAG-3 protein (Lymphocyte …); assay: flow cytometry on LAG-3-expressing CHO cells, four independent experiments; reference 17B4
Protocol: as §1

[33] = target: T1, human LAG-3 protein (Lymphocyte …); assay: flow cytometry on CD4+ cells of SEB-stimulated PBMCs, mean of three donors
Protocol: as §1

[34] = target: T1, human LAG-3 protein (Lymphocyte …); assay: flow cytometry on CD4+ cells of SEB-stimulated PBMCs, three donors; reference 17B4
Protocol: as §1

[35] = target: T2, IMP321 (recombinant soluble human LAG-3Ig fusion protein) (human, UniProt P18627 23-450); assay: cell-based or functional assay
T2 sequence (looked up): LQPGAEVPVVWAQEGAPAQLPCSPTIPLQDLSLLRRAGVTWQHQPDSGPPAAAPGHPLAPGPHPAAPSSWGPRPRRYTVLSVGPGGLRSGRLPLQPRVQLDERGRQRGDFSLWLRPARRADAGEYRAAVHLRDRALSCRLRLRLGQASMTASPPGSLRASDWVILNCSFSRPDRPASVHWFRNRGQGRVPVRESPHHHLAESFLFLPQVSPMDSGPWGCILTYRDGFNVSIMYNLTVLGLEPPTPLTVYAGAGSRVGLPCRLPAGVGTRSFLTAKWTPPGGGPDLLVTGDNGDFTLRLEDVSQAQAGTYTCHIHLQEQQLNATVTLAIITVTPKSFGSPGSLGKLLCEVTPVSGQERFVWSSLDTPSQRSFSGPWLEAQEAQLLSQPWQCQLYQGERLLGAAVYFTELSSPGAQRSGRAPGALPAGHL

[36] = target: T1, human LAG-3 protein (Lymphocyte …); assay: flow cytometry on CD8+ cells of SEB-stimulated PBMCs, three donors; reference 17B4
Protocol: as §1

[37] = target: T1, human LAG-3 protein (Lymphocyte …); assay: flow cytometry on CD8+ cells of SEB-stimulated PBMCs, mean of three donors
Protocol: as §1

For isotype control antibody (mIgG1), the MFI [1] was 440 MFI, the MFI of sLAG-3Ig-Alexa 488 [2] was 359 MFI and the MFI [3] was 116 MFI. For the same molecule, the MFI [4] was 110 MFI, the MFI [5] was 112 MFI and the MFI [6] was 156 MFI. It also gave an MFI [7] of 120 MFI, an MFI of sLAG-3Ig-Alexa 488 [8] of 284 MFI and an MFI [9] of 116 MFI. It also gave an MFI of sLAG-3Ig-Alexa 488 [10] of 373 MFI, an MFI [11] of 168 MFI and an MFI [12] of 114 MFI. For the same molecule, the MFI of sLAG-3Ig-Alexa 488 [13] was 324 MFI, the MFI [14] was 112 MFI and the MFI [15] was 110 MFI. The MFI [16] was 106 MFI, the MFI [17] was 127 MFI and the MFI [18] was 113 MFI. For the same molecule, the MFI [19] was 137 MFI, the MFI [20] was 115 MFI and the MFI of sLAG-3Ig-Alexa 488 [21] was 254 MFI. The MFI [22] was 140 MFI, the MFI of sLAG-3Ig-Alexa 488 [23] was 361 MFI and the MFI [24] was 106 MFI. It also gave an MFI [25] of 109 MFI, an MFI [26] of 108 MFI and a [CCL4] in THP-1 monocytic cells supernatant; IMP321 20 ng/ml pre-incubated with antibody 2 ng/ml [27] of 2050 pg/mL. The [CCL4] in THP-1 monocytic cells supernatant; IMP321 20 ng/ml pre-incubated with antibody 20 ng/ml [27] was 2140 pg/mL, the [CCL4] in THP-1 monocytic cells supernatant; IMP321 20 ng/ml pre-incubated with antibody 200 ng/ml [27] was 2220 pg/mL and the [CCL4] in THP-1 monocytic cells supernatant; IMP321 20 ng/ml pre-incubated with antibody 2000 ng/ml [27] was 2260 pg/mL. For the same molecule, the [CCL4] in THP-1 monocytic cells supernatant; IMP321 20 ng/ml pre-incubated with antibody 20000 ng/ml [27] was 2900 pg/mL, the [CCL4] in THP-1 monocytic cells supernatant; IMP321 20 ng/ml, antibody 0 ng/ml (no-antibody value) [27] was 2110 pg/mL and the MFI [28] was 251 MFI. The MFI of sLAG-3Ig-Alexa 488 [29] was 328 MFI and the MFI [30] was 116 MFI.

B1: mouse monoclonal anti-LAG-3 antibody 34F4 (antibody, V domains shown)
VH: QVTLKESGPGILQPSQTLSLTCSFSGFSLNTSGMGVGWIRQPSGKGLEWLTHIWWDDVKRYNPALKSRLTISKDTSSSQVFLKIASVDTADTATYYCARIEGDTYYDYYFDYWGQGVTLTVSS
VL: DIVMTQSHKLMSTSVGDGLSITCKASQDVSIAVVWYQQKPGQSPKLLIYSASFRYTGVPDRFTGSGSGTDFTFTISSVQAEDLAVYYCQQHYSIPWTFGGGTKLEIK
notes: Whole mouse monoclonal antibody from a hybridoma; mIgG1 was used as its isotype control
With B1 the EC50 [31] was 0.1 nM, the “ratio of mean EC50 against 17B4” value [32] was 1.6 times and the EC50 [33] was 0.2 nM. The “ratio of mean EC50 against 17B4” value [34] was 3.8 times, the “percentage of inhibition of CD8+ T cell proliferation; Donor #1, 34F4 1000 ng/ml neutralised with a 10-fold excess of IMP321” value [35] was 0% and the “percentage of inhibition of CD8+ T cell proliferation; Donor #2, 34F4 1000 ng/ml neutralised with a 10-fold excess of IMP321” value [35] was 41%. The “ratio of mean EC50 against 17B4” value [36] was 2.5 times and the EC50 [37] was 0.5 nM.

Source: patent publication US20190153112A1 (IMMUTEP S A S, published 2019)
